Values belong to the substance of their own block, whether it stands above or below them.
How the values were obtained:
[1] = target: ERK substrate (Cdc25C substrate sequence with second phosphorylation site, V-3S); assay: cell-based or functional assay
[2] = target: SmBiT(ΔC3) (NanoBiT small fragment truncated by 3 amino acids at the C-terminus); assay: cell-based or functional assay

- induction of luminescence (ΔC3 V-3S) [1]: 8.8 fold
Substance: WW phospho-binding domain (proline-directed WW phospho-binding domain from Pin1) (from UniProt Q13526 1-54)

- response (luminescence induction by ERK inhibition) of the reporter with truncated SmBiT [2]: 300%
Substance: LgBiT (NanoBiT large fragment of NanoLuc), ΔN2 (enzyme)

- induction of luminescence by Vx-11e (bKiMBI) [1]: > 10 fold
Substance: WW phospho-binding domain with F25A mutation (from UniProt Q13526 1-54)
